Experimental data taken from patent US6645934B1, “Peptide with radio protective effect” (Eberhard-Karls-Universität Tübingen, priority 1997, dated 2003).
Bridges are numbered along the chain shown (N, C = ends).

Columns and labels:
[1] = molecular target: TLCK-treated chymotrypsin (Bos taurus, UniProt P00766); assay: Protease inhibition test, chymotrypsin; type: biochemical
Protocol: (§1) A batch containing 50 μl TLCK-treated chymotrypsin (0.1 mg/ml) was incubated for 10 minutes in 12.5% DMSO and 87.5% PBS with 50 μl of a solution having BBI (BBI), reduced BBI (BBI-R), or reduced and alkylated BBI (BBI-A) together with 50 μl PBS and 50 μl of the chymotrypsin substrate acetyl-A-A-P-F-pNa (0.5 mg/ml, of Bachem Heidelberg, Germany). The colored reaction product was detected at 405 nm in a spectrophotometer.
A batch without BBI (0) was run as control, and its measured value was taken as 100% chymotrypsin activity (% CH). The blank value with buffer alone is labeled “-” and indicates the cuvette and buffer solution background.

TPCK-treated trypsin = molecular target: T1, TPCK-treated trypsin (Bos taurus, UniProt P00760); assay: Protease inhibition test, trypsin; type: biochemical; details: FIG. 8
T1 sequence (P00760 24-246): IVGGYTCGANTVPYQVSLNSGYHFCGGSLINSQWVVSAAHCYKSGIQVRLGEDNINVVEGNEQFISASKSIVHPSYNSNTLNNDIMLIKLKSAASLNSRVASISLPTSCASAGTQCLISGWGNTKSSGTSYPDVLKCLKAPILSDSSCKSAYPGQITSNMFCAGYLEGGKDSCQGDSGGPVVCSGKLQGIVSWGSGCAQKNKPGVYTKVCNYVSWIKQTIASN
Protocol: as §1
If inhibition of the protease trypsin (see Example 4, FIG. 8) was to be determined, TPCK-treated trypsin (0.1 mg/ml) and the peptide CBZ-R-pNa (1 mg/ml) as substrate were used, and the test was otherwise performed as described.

human skin fibroblasts = assay: Clonogenic assay with human skin fibroblasts under UV-B irradiation; type: cell-based; details: UV-B radiation at 100 J/m^2, FIG. 6; for increase in clonogenic survival of the human skin fibroblasts compared to the untreated cells: BBI 10 μM, peptides 80 μM; for effect on clonogenic survival compared with complete BBI / effect on clonogenic survival, further increase over that of complete BBI: peptides 80 μM vs BBI 10 μM
Protocol: (§2) Normal human fibroblasts were cultivated in Dulbecco's Modified Eagles Medium (DMEM) with 10% fetal calf serum under standard conditions. At each cell passage the number of cells was counted, and the cells were seed with a density of 2×10^4/cm^2 when subcultures were set up.
(§3) For the clonogenic assay, secondary fibroblasts were trypsinated with 0.05% trypsin and 0.1 EDTA, and seed at a cell density of 50 cells per cm^2 into six-well tissue culture dishes. The cells were cultivated with 2 ml DMEM with 20% fetal calf serum per well.
(§4) After 24 hours the medium was removed and the cells were incubated for 16 hours either in additive-free control mediums (“0” in the Figures) or in medium that contained 10 μM of either BBI or a modified BBI form or a BBI fragment. The nonapeptides and heptapeptide according to the present invention (see Example 3) were used at a concentration of 80 μM.
(§5) The cells were then cultivated for a further eight days in BBI-free culture medium in order to allow colonies to form. The cells were then fixed, stained, and counted; in the Figures, “K” indicates the absolute number of clones counted.
(§6) A clone is a colony or a cell cluster resulting from the division of one cell during the eight-day cultivation period. The number of clones corresponds to the degree to which the human fibroblasts survived the irradiation. This will therefore also be referred to hereinafter as the “clonogenic survival” of the cells. If many cells die when the cells are irradiated, then only a few clones will form after eight days; if many cells survive, then many clones may be counted after eight days of cultivation. The clonogenic survival of the cells after irradiation is thus a direct indication of the radioprotective effect of the BBI product being used.
Once again a clonogenic assay was performed, using complete BBI or the four peptides P1 through P4.
In this case irradiation was performed with UV-B radiation at 100 J/m^2.

Normal human fibroblasts [2] = assay: Clonogenic assay with normal human fibroblasts under ionizing radiation; type: cell-based; details: for radioprotective effect compared with complete BBI and the other peptides (clonogenic assay): single dose of 4 Gy, peptides 80 μM, complete BBI 10 μM, FIG. 5; for influence on survival of the cells without irradiation (clonogenic assay): 0 Gy, 10 μM, 16 h incubation, FIG. 1
Protocol: The examination of the radioprotective effect of BBI and of modified forms of BBI was performed as a so-called clonogenic assay, which is described, for example, in K. Dittmann et al., Radiotherapy and Oncology 34 (1995), pages 137-143, and is explained briefly below.
as §2, §3, §4
This was followed by irradiation with ionizing radiation, the energy dose being either 2 or 4 gray (Gy). This energy dose corresponds to the entire converted radiation energy given in mass unit Joule/kg=(gray). A 6 MeV linear accelerator (Mevatron, Siemens) was used for irradiation.
as §5, §6

trypsin (TPCK-treated) = assay: cell-based or functional assay
[3] = molecular target: chymotrypsin (TLCK-treated); assay: cell-based or functional assay
Normal human fibroblasts [4] = details: publication of Dittmann et al.; cited from earlier work
[5] = FIG. 2, control without BBI = 100% chymotrypsin activity

Peptide P4: nonapeptide SEQ ID NO: 2 (serine to valine exchange), terminal cysteines not crosslinked; acetyl and amide protective groups (Ac-CALVYPAQC-NH2; cysteine pairing not given here)
inhibition of chymotrypsin activity ([1]; 0.1 mM, FIG. 7): only a few percent or not at all
inhibition of the activity of trypsin (TPCK-treated trypsin; 0.1 mM): no effect on the activity of trypsin
increase in clonogenic survival of the human skin fibroblasts compared to the untreated cells (human skin fibroblasts): significantly increased
effect on clonogenic survival compared with complete BBI (human skin fibroblasts): less of an effect than complete BBI

Peptide P3: nonapeptide SEQ ID NO: 1, terminal cysteine residues not crosslinked; acetyl and amide protective groups (Ac-CALSYPAQC-NH2; cysteine pairing not given here)
inhibition of chymotrypsin activity ([1]; 0.1 mM, FIG. 7): only a few percent or not at all
inhibition of the activity of trypsin (TPCK-treated trypsin; 0.1 mM): no effect on the activity of trypsin
radioprotective effect compared with complete BBI and the other peptides (clonogenic assay) (Normal human fibroblasts [2]): even more pronounced radioprotective effect than peptides P2 (heptapeptide) and P4
effect on clonogenic survival, further increase over that of complete BBI (human skin fibroblasts): 20%

Peptide P2: heptapeptide SEQ ID NO: 3, no cysteine residues, linear; acetyl and amide protective groups (Ac-ALSYPAQ-NH2)
inhibition of chymotrypsin activity ([1]; 0.1 mM, FIG. 7): only a few percent or not at all
inhibition of the activity of trypsin (TPCK-treated trypsin; 0.1 mM): no effect on the activity of trypsin
effect on clonogenic survival, further increase over that of complete BBI (human skin fibroblasts): 20%

Peptide P1: nonapeptide SEQ ID NO: 1, terminal cysteine residues crosslinked with a disulfide bond; acetyl and amide protective groups (Ac-CALSYPAQC-NH2; disulfide 1-9; SMILES CC(=O)N[C@H]1CSSC[C@@H](C(N)=O)NC(=O)[C@H](CCC(N)=O)NC(=O)[C@H](C)NC(=O)[C@@H]2CCCN2C(=O)[C@H](Cc2ccc(O)cc2)NC(=O)[C@H](CO)NC(=O)[C@H](CC(C)C)NC(=O)[C@H](C)NC1=O)
inhibition of chymotrypsin activity ([1]; 0.1 mM, FIG. 7): only a few percent or not at all
inhibition of the activity of trypsin (TPCK-treated trypsin; 0.1 mM): no effect on the activity of trypsin
radioprotective effect compared with complete BBI and the other peptides (clonogenic assay) (Normal human fibroblasts [2]): even more pronounced radioprotective effect than peptides P2 (heptapeptide) and P4
effect on clonogenic survival compared with complete BBI (human skin fibroblasts): just as pronounced an effect as the addition of complete BBI

B1: Bowman-Birk Protease Inhibitor (BBI), complete (protein, soybean, UniProt P01055 40-110, looked up)
chain: DDESSKPCCDQCACTKSNPPQCRCSDMRLNSCHSACKSCICALSYPAQCFCVDITDFCYEPCKPSEDDKEN
inhibition of trypsin activity at 0.05 mM BBI (substrate CBZ-R-pNa) (trypsin (TPCK-treated)): > 90%
inhibition of trypsin activity at 0.1 mM BBI (substrate CBZ-R-pNa) (trypsin (TPCK-treated)): > 90%
inhibition of chymotrypsin activity (substrate acetyl-A-A-P-F-pNa, 405 nm) [3]: 80%
inhibition of chymotrypsin activity at 0.05 mM BBI [3]: 80%
inhibition of chymotrypsin activity at 0.1 mM BBI [3]: 90%

B2: reduced BBI (BBI-R) (protein, soybean, UniProt P01055 40-110, looked up)
chain: DDESSKPCCDQCACTKSNPPQCRCSDMRLNSCHSACKSCICALSYPAQCFCVDITDFCYEPCKPSEDDKEN
modifications: pretreated with dithiothreitol (DTT) so that all the disulfide bonds in the BBI were cleaved (cysteines reduced)
inhibition of chymotrypsin activity (substrate acetyl-A-A-P-F-pNa, 405 nm) [3]: 30%

B3: Bowman-Birk Protease Inhibitor (protein)
chain: DDESSKPCCDQCACTKSNPPQCRCSDMRLNSCHSACKSCICALSYPAQCFCVDITDFCYEPCKPSEDDKEN
notes: complete BBI (from Sigma Biochemicals)
inhibition of chymotrypsin activity ([1]; 0.05 mM, FIG. 7): 80%
inhibition of chymotrypsin activity ([1]; 0.1 mM, FIG. 7): 90%
inhibition of chymotrypsin activity [1, 5]: 80%
radiation-induced mortality of cultivated human fibroblasts (Normal human fibroblasts [4]): decreases the radiation-induced mortality
inhibition of the activity of trypsin (TPCK-treated trypsin; 0.05 mM): more than 90%
inhibition of the activity of trypsin (TPCK-treated trypsin; 0.1 mM): more than 90%
influence on survival of the cells without irradiation (clonogenic assay) (Normal human fibroblasts [2]): does not influence survival of the cells within experimental error
increase in clonogenic survival of the human skin fibroblasts compared to the untreated cells (human skin fibroblasts): approximately 40%

B4: BBI-R: complete BBI pretreated with the reducing agent dithiothreitol (DTT), so that all the disulfide bonds were cleaved (protein)
chain: DDESSKPCCDQCACTKSNPPQCRCSDMRLNSCHSACKSCICALSYPAQCFCVDITDFCYEPCKPSEDDKEN
modifications: cyclised or stapled
notes: complete BBI pretreated with the reducing agent dithiothreitol (DTT), so that all the disulfide bonds were cleaved
inhibition of chymotrypsin activity [1, 5]: about 30%
influence on survival of the cells without irradiation (clonogenic assay) (Normal human fibroblasts [2]): does not influence survival of the cells within experimental error

B5: BBI-A: BBI first reduced, cysteine residues then alkylated with iodoacetamide to prevent reoxidation (protein)
chain: DDESSKPCCDQCACTKSNPPQCRCSDMRLNSCHSACKSCICALSYPAQCFCVDITDFCYEPCKPSEDDKEN
inhibition of chymotrypsin activity [1, 5]: no longer capable of inhibiting chymotrypsin activity
influence on survival of the cells without irradiation (clonogenic assay) (Normal human fibroblasts [2]): does not influence survival of the cells within experimental error
